From patent US20080241109A1

Molecular target: Fas receptor (human) (UniProt P25445)
Assay: cell-based or functional assay

Sequence of UniProt P25445 (P25445 26-335): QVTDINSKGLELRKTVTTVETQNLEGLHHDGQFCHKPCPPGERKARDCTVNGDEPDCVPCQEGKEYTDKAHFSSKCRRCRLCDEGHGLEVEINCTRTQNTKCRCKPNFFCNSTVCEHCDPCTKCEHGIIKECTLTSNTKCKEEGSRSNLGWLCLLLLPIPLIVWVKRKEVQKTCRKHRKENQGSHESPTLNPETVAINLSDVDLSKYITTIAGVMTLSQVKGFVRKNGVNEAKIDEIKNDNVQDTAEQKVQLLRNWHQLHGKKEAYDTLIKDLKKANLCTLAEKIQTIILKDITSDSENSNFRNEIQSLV

| Substance | IC50 (ng/ml), PESMTS survival assay, ARH-77 cells (multiple myeloma) [ng/mL] | IC50 (ng/ml), PESMTS survival assay, DOHH2 cells (follicular lymphoma) [ng/mL] | IC50 (ng/ml), PESMTS survival assay, HL60 (AML-M3) cells [ng/mL] | IC50 (ng/ml), PESMTS survival assay, Jurkat cells (acute T lymphoblastic leukemia) [ng/mL] | IC50 (ng/ml), PESMTS survival assay, K562 cells (chronic myeloid leukaemia) [ng/mL] | IC50 (ng/ml), PESMTS survival assay, NB4 (AML-M3) cells [ng/mL] | IC50 (ng/ml), PESMTS survival assay, Namalwa (ALL-L3) cells [ng/mL] | IC50 (ng/ml), PESMTS survival assay, OPM2 cells (multiple myeloma) [ng/mL] | IC50 (ng/ml), PESMTS survival assay, RPMI-8226 cells (multiple myeloma) [ng/mL] | IC50 (ng/ml), PESMTS survival assay, Raji (ALL-L3) cells [ng/mL] | IC50 (ng/ml), PESMTS survival assay, SC-I cells (follicular lymphoma) [ng/mL] | IC50 (ng/ml), PESMTS survival assay, U266 cells (multiple myeloma) [ng/mL] |
| --- | --- | --- | --- | --- | --- | --- | --- | --- | --- | --- | --- | --- |
| MegaFasL (fusion polypeptide m or hACRP30:hFasL) (from UniProt P48023 103-281) (ligand) | 10.4 | 1.17 | 213 | 0.06 | > 10000 | 16 | 57 | 2.19 | 3.57 | 5.6 | > 10000 | 6.2 |
| CH11 (antibody) | > 10000 | > 10000 | > 10000 | 6.58 | > 10000 | > 10000 | > 10000 | – | > 10000 | 15.8 | > 10000 | > 10000 |
